{"source": "paper PMC12822413", "key": {"[1]": {"molecular_target": "TSHR on TSHR-293T cells (Homo sapiens) (UniProt P16473)", "sequence (P16473 21-764)": "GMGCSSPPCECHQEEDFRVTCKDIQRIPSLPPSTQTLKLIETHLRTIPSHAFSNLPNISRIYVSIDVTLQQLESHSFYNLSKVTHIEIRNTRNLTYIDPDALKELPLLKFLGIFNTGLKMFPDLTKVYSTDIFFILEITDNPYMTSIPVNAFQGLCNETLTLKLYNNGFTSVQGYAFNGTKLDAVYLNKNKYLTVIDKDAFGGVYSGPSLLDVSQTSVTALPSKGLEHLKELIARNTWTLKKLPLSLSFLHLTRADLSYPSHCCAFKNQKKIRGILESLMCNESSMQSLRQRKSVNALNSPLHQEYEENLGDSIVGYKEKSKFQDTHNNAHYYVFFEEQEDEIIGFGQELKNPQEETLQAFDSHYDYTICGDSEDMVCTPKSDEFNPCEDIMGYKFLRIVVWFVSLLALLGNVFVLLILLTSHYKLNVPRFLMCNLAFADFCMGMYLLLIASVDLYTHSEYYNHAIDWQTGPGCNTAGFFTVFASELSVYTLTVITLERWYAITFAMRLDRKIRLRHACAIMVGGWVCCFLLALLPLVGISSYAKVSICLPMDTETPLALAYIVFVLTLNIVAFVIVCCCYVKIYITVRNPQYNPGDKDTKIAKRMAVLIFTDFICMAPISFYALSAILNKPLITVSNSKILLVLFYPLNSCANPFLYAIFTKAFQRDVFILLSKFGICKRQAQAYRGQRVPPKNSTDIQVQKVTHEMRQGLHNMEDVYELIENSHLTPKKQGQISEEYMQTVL", "test": "flow cytometry", "settings": "Flow: DPBS, 5 mM MgCl2, 4.5 g/L glucose, 0.1 mg/mL yeast tRNA, 1 mg/mL BSA, 4 C 30 min; SPR: DPBS, 5 mM Mg2+, pH 7.4, 25 C"}, "[2]": {"molecular_target": "endogenous TSHR on Graves' orbital fibroblasts (GOFs) (Homo sapiens) (UniProt P16473)", "sequence (P16473 21-764)": "as above", "test": "flow cytometry", "settings": "Flow: DPBS, 5 mM MgCl2, 4.5 g/L glucose, 0.1 mg/mL yeast tRNA, 1 mg/mL BSA, 4 C 30 min; SPR: DPBS, 5 mM Mg2+, pH 7.4, 25 C"}}}
{"sequence": "ACCGACCGTGCTGGACTCAGATGAACAATCGATGGAAGATTGGGTCGCACCGGCCTCTTTCACTATGAGCGAGCCTGGCG [YC3]", "values": [{"measurement": "Kd", "setting": "[1]", "result": 260, "unit": "nM"}, {"measurement": "Kd", "setting": "[2]", "result": 99.2, "unit": "nM"}]}
